Data: patent publication US20090004675A1, “Method of Identifying Compounds for Bacterial Growth Modulation” (priority 2004, published 2009)

Tests used:
[1] = target: Streptococcus pyogenes β clamp; assay: fluorescence anisotropy; labeled peptide; conditions: chains peptide; modification not given
[2] = target: Escherichia coli β clamp (beta subunit of DNA polymerase III holoenzyme), P0A988; assay: fluorescence (fluorophore-labeled β titrated with peptide); ±0.4; labeled β; conditions: chains peptide; modification not given

Row | Binder | Kd [1] | Kd [2]
1 | DEMGILGNMPEDNQLSLFDDFF [Peptide corresponding to C-terminal residues of Streptococcus pyogenes Pol C] | 2200 nM | –
2 | RLLNDLRGLIGSEQVELEFD [20 mer peptide corresponding to the C-terminal 20 residues of E. coli Pol III α subunit] | – | 2700 nM
3 | DELGSLPNLPDKAQLSIFDM [C-terminal peptide corresponding to Staphylococcus aureus Pol C] | 14000 nM | –
